In paper PMC10018343 (Nucleic Acids Research, 2023):

B3: Bre1^R6BR (Bre1 amino acids 1-212, Rad6-binding region) (domain or fragment, S. cerevisiae, UniProt Q07457 1-212, looked up)
chain: MTAEPATKKIKLELSDPSEPLTQSDVIAFQKEALFRCINRRRVDFEALRKQYELSRRECIDVSRKLANIMALIVTLARFIETFCTDANEKQLCREIAQGDETLIVQRSDSFMKLLTKYGKPNTTDSNTNSNASDHIQELTTELKNLRKSKEELFYENSQLTEEISALKEYYTNIIRKYDRDESFTIKRVFKEDKTDAVKELREDEKESNENN

Assays:
[1] = target: T1, biotinylated Bre1^R6BR (Bre1 amino acids 1-212 with AviTag) (S. cerevisiae, UniProt Q07457 1-212, biotin on the AviTag); test: BLI
T1 sequence (looked up): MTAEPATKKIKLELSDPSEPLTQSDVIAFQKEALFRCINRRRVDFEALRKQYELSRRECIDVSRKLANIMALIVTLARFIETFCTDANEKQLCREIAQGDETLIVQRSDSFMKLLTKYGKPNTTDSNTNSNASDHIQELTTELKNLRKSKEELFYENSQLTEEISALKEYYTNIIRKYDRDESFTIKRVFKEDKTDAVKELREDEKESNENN

[2] = target: B3; test: SEC-MALS
SEC-MALS = target: the molecule itself; test: SEC-MALS

B1: His6Rad6 (wild type), purified alone as BLI analyte (enzyme, S. cerevisiae, UniProt P06104 1-172, looked up)
chain: MSTPARRRLMRDFKRMKEDAPPGVSASPLPDNVMVWNAMIIGPADTPYEDGTFRLLLEFDEEYPNKPPHVKFLSEMFHPNVYANGEICLDILQNRWTPTYDVASILTSIQSLFNDPNPASPANVEAATLFKDHKSQYVKRVKETVEKSWEDDMDDMDDDDDDDDDDDDDEAD
Q: How did the Kd [1] turn out when B1 was run?
A: 112 nM

B2: His6Rad6 (amino acids 1-150), co-expressed with Bre1^R6BR (enzyme, S. cerevisiae, UniProt P06104 1-150, looked up)
chain: MSTPARRRLMRDFKRMKEDAPPGVSASPLPDNVMVWNAMIIGPADTPYEDGTFRLLLEFDEEYPNKPPHVKFLSEMFHPNVYANGEICLDILQNRWTPTYDVASILTSIQSLFNDPNPASPANVEAATLFKDHKSQYVKRVKETVEKSWE
Q: For B2, which “stoichiometry N” value [2] is on record?
A: 0.5 Rad6 per Bre1^R6BR subunit

Q: For B3, which “stoichiometry N” value (SEC-MALS) is on record?
A: 2
